This test has as its target Myeloperoxidase (MPO), native, dimeric (human) (UniProt P05164). Description: SPR. A general note: SPR reads the build-up and loss of mass on a sensor chip optically.

B1: Ceruloplasmin (CP), intact (non-proteolyzed) (natural protein)
chain: KEKHYYIGIIETTWDYASDHGEKKLISVDTEHSNIYLQNGPDRIGRLYKKALYLQYTDETFRTTIEKPVWLGFLGPIIKAETGDKVYVHLKNLASRPYTFHSHGITYYKEHEGAIYPDNTTDFQRADDKVYPGEQYTYMLLATEEQSPGEGDGNCVTRIYHSHIDAPKDIASGLIGPLIICKKDSLDKEKEKHIDREFVVMFSVVDENFSWYLEDNIKTYCSEPEKVDKDNEDFQESNRMYSVNGYTFGSLPGLSMCAEDRVKWYLFGMGNEVDVHAAFFHGQALTNKNYRIDTINLFPATLFDAYMVAQNPGEWMLSCQNLNHLKAGLQAFFQVQECNKSSSKDNIRGKHVRHYYIAAEEIIWNYAPSGIDIFTKENLTAPGSDSAVFFEQGTTRIGGSYKKLVYREYTDASFTNRKERGPEEEHLGILGPVIWAEVGDTIRVTFHNKGAYPLSIEPIGVRFNKNNEGTYYSPNYNPQSRSVPPSASHVAPTETFTYEWTVPKEVGPTNADPVCLAKMYYSAVEPTKDIFTGLIGPMKICKKGSLHANGRQKDVDKEFYLFPTVFDENESLLLEDNIRMFTTAPDQVDKEDEDFQESNKMHSMNGFMYGNQPGLTMCKGDSVVWYLFSAGNEADVHGIYFSGNTYLWRGERRDTANLFPQTSLTLHMWPDTEGTFNVECLTTDHYTGGMKQKYTVNQCRRQSEDSTFYLGERTYYIAAVEVEWDYSPQREWEKELHHLQEQNVSNAFLDKGEFYIGSKYKKVVYRQYTDSTFRVPVERKAEEEHLGILGPQLHADVGDKVKIIFKNMATRPYSIHAHGVQTESSTVTPTLPGETLTYVWKIPERSGAGTEDSACIPWAYYSTVDQVKDLYSGLIGPLIVCRRPYLKVFNPRRKLEFALLFLVFDENESWYLDDNIKTYSDHPEKVNKDDEEFIESNKMHAINGRMFGNLQGLTMHVGDEVNWYLMGMGNEIDLHTVHFHGHSFQYKHRGVYSSDVFDIFPGTYQTLEMFPRTPGIWLLHCHVTDHIHAGMETTYTVLQNEDTKSG
B1 registered a Kd of 436 nM, a dissociation rate constant (koff) of 0.503 s⁻¹ and an on-rate (kon) of 11500 M⁻¹ s⁻¹.

Usually Kd stands for a measure of binding affinity in units of concentration. Higher therefore signals a looser complex. A word on the koff: it is the first-order rate constant of dissociation. A low value points to slow dissociation. What is called kon is a measure of how fast the partners come together.

For the origin of these results see article PMC9375587.
